The source of these data is publication PMC8654964, “Centrosome dysfunction associated with somatic expression of the synaptonemal complex protein TEX12” (Communications Biology, 2021).

The series deals with the molecule itself. In words: SEC-MALS; Superdex 200 Increase 10/300 GL, 20 mM Tris pH 8.0, 150 mM KCl, 2 mM DTT, 0.5 ml/min; TEX12 loaded at 12 mg/ml, TEX12core at 4 mg/ml; self-association (homodimer). Background: SEC sorts molecules by how far they enter the pores of the column.

The term stoichiometry N denotes a count of units in the complex or per binding partner.

B1: TEX12 (human, full length, amino acids 1-123) (natural protein, UniProt Q9BXU0 1-123, looked up)
chain: MMANHLVKPDNRNCKRPRELESPVPDSPQLSSLGKSDSSFSEISGLFYKDEALEKDLNDVSKEINLMLSTYAKLLSERAAVDASYIDEIDELFKEANAIENFLIQKREFLRQRFTVIANTLHR
notes: Human TEX12, synaptonemal complex central element protein, amino acids 1-123 (full length); Cloned into pMAT11 as a His6-MBP fusion with a TEV site; also called recombinant human TEX12; source: E. coli BL21(DE3), purified (Ni-NTA, amylose, TEV cleavage, anion exchange); not shown: His6, N-terminal, cleaved; MBP, N-terminal, cleaved
B1: the “stoichiometry N” value amounted to 2.

B2: TEX12core (human TEX12 amino acids 49-123) (domain or fragment, UniProt Q9BXU0 49-123, looked up)
chain: KDEALEKDLNDVSKEINLMLSTYAKLLSERAAVDASYIDEIDELFKEANAIENFLIQKREFLRQRFTVIANTLHR
notes: Human TEX12, alpha-helical structural core, amino acids 49-123; Cloned into pMAT11 as a His6-MBP fusion with a TEV site; also called structural core (49-123); source: E. coli BL21(DE3), purified (Ni-NTA, amylose, TEV cleavage, anion exchange); not shown: His6, N-terminal, cleaved; MBP, N-terminal, cleaved
Consider B2, for which the “stoichiometry N” value is 2.
